The values that follow come from paper PMC4973743, “Functional analysis of structurally related soybean GmWRKY58 and GmWRKY76 in plant growth and development”.

The target of one data set is T1, GmWRKY76 (Glycine max (soybean), UniProt I1KB70 1-319).
T1 sequence: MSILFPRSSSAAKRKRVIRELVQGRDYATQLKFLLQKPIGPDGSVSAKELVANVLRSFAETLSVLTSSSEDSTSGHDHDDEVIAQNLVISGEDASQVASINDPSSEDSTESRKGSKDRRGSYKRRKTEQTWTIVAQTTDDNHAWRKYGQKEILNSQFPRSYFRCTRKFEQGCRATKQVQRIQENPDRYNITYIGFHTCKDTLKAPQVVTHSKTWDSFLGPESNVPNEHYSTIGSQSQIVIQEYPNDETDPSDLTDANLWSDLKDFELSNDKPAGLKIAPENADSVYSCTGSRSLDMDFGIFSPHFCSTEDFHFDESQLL
The data set is described as follows: EMSA; 5 ug poly(dI-dC), 1 ug protein; LightShift Chemiluminescent EMSA kit; 20 ul reactions, 2 ng labeled oligo, 5 ug poly(dI-dC), 1 ug recombinant protein; buffer, salt, pH and temperature not stated. The settings on record: tags: His (pET32a fusion), label: biotin 3' end. A general note: Mobility shift assays separate free from complexed probe on a gel.

The target of the next data set is T2, GmWRKY58 (Glycine max (soybean), UniProt B0LUS3 1-317).
T2 sequence: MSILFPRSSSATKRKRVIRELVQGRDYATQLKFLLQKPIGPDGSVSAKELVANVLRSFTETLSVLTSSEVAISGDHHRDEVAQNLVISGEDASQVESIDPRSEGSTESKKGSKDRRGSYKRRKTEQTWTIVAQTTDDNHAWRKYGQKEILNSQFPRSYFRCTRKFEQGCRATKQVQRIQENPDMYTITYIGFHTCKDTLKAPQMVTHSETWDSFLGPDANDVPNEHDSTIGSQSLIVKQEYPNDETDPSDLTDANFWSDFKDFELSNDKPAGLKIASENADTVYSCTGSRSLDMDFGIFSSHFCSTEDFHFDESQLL
Described as above. The settings on record: tags: His (pET32a fusion), label: biotin 3' end.

B1: Pchn5 (dsDNA)
DNA 1: GGAACTTGACCATCCGTTGACCGGGCTGCAGGAATTCG
DNA 2: CGAATTCCTGCAGCCCGGTCAACGGATGGTCAAGTTCC
As for B1, the binding result with GmWRKY76 and in the data set with GmWRKY58 was “binds” each time.

B2: mPchn5 (dsDNA)
DNA 1: GGAACTTGAACATCCGTTGAACGGGCTGCAGGAATTCG
DNA 2: CGAATTCCTGCAGCCCGTTCAACGGATGTTCAAGTTCC
Regarding B2, the binding result with GmWRKY76 and with GmWRKY58 was “no binding” each time.
